# Where two headings read alike, the source gives them in different places.
# B1: Tb^3+•DTPA-RNase: p-SCN-Bn-CHX-A″-DTPA covalently coupled to bovine ribonuclease A (about 1:1), charged with Tb^3+ (conjugate, UniProt P61823 27-150, looked up)
# Ribonuclease pancreatic: KETAAAKFERQHMDSSTSAASSSNYCNQMMKSRNLTKDRCKPVNTFVHESLADVQAVCSQKNVACKNGQTNCYQSYSTMSITDCRETGSSKYPNCAYKTTQANKHIIVACEGNPYVPVHFDASV
# modifications: CHX-A''-DTPA chelate with Tb3+
# Assays:
# [1] = target: human neutrophil gelatinase-associated lipocalin (hNGAL, Lcn2, P80188), wild type (Homo sapiens, UniProt P80188); conditions: cited from earlier work
# Sequence of human neutrophil gelatinase-associated lipocalin (hNGAL, Lcn2, P80188), wild type (P80188 21-198, one chain of several): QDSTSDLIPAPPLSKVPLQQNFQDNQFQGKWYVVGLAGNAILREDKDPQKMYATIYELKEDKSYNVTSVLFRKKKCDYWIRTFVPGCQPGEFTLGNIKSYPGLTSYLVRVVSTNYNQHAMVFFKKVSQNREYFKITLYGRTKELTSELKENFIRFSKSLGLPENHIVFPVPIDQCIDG
# [2] = target: T1, hNGAL mutein C26, SEQ ID NO: 10 (Yd5 + L42P/P48L/Q49L/I55T/K75M) (Homo sapiens, UniProt P80188, C107S/D97E/I100T/I61A/I75T/K154S/K95M/L56R/L62P/L90R/P68L/Q48H/Q69L/R101M/S147Q/S88A/T156S/T165A/T74Q/V53Q/W99L/Y158L/Y72T); format: binding; conditions: read-out: Kg (from half-maximal free metal chelate concentration)
# T1 construct: the mature hNGAL protein and the C-terminal Strep-tag II; OmpA signal peptide (N, cleaved yes); made in house; host or cells: E. coli BL21 or TG1-F- (periplasm), plasmid pNGAL15
# T1 sequence (P80188 21-198 with the stated changes): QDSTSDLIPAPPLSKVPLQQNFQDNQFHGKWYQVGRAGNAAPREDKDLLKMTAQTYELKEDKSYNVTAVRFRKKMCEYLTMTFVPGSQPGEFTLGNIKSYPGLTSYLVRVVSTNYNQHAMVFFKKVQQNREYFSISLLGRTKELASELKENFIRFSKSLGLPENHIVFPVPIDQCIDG
# [3] = target: T2, human neutrophil gelatinase-associated lipocalin (hNGAL), wild type, SEQ ID NO: 1 (Homo sapiens, UniProt P80188); test: ELISA, captured hNGAL variant with Me•DTPA conjugate; format: binding
# T2 construct: the mature hNGAL protein and the C-terminal Strep-tag II; OmpA signal peptide (N, cleaved yes); made in house; host or cells: E. coli BL21 or TG1-F- (periplasm), plasmid pNGAL14
# T2 sequence (P80188 21-198): as the sequence (P80188 21-198, one chain of several) above
# [4] = target: T3, hNGAL mutein Tb7, SEQ ID NO: 2 (Homo sapiens, UniProt P80188, C107S/I61A/K154S/L56R/L90R/Q48H/R101M/S88A/T165A/T74Q/V53Q/W99A/Y158L/Y72T); test: as above; format: binding; conditions: Tb•DTPA-RNase A conjugate, read-out: apparent affinity
# T3 construct: the mature hNGAL protein and the C-terminal Strep-tag II; OmpA signal peptide (N, cleaved yes); made in house; host or cells: E. coli BL21 or TG1-F- (periplasm), plasmid pNGAL15
# T3 sequence (P80188 21-198 Q48H/V53Q/L56R/I61A/Y72T/T74Q/S88A/L90R/W99A/R101M/C107S/K154S/Y158L/T165A): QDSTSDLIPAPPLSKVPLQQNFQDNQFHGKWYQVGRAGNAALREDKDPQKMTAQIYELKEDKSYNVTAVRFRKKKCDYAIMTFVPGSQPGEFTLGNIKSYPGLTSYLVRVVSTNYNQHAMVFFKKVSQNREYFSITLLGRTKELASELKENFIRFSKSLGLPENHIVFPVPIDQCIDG
# [5] = target: T4, hNGAL mutein Tb7.N9.N34, SEQ ID NO: 7 (Tb7.N9 + S127Q) (Homo sapiens, UniProt P80188, C107S/I100T/I61A/K154S/L56R/L90R/Q48H/R101M/S147Q/S88A/T165A/T74Q/V53Q/W99L/Y158L/Y72T); test: SPR (Biacore), immobilized Me•DTPA-RNase; format: binding
# T4 construct: the mature hNGAL protein and the C-terminal Strep-tag II; Strep-tag II (C); OmpA signal peptide (N, cleaved yes); made in house; host or cells: E. coli BL21 or TG1-F- (periplasm), plasmid pNGAL15
# T4 sequence (P80188 21-198 with the stated changes): as the sequence (P80188 21-198 Q48H/V53Q/L56R/I61A/Y72T/T74Q/S88A/L90R/W99A/R101M/C107S/K154S/Y158L/T165A) above, with A79L, I80T, S127Q counted along it
# Description: (§1) Real time analysis of hNGAL variants was performed on a BIAcore X system (BIAcore, Uppsala, Sweden) using PBS/t (PBS containing 0.005% (v/v) Tween 20) as running buffer. 5 to 27 μg/ml solutions of the Me•DTPA-RNase conjugate in 10 mM Na-acetate, pH 5.0 were immobilized on a CM5 chip using standard amine coupling chemistry, resulting in a ligand density of 240 to 1800 resonance units (RU). The purified hNGAL variant was applied at a flow rate of 5 or 25 μl/min at concentrations of 0.5 up to 500 nM. The sensorgrams were corrected by subtraction of the corresponding signals measured for the control channel, which had been activated and blocked with ethanolamine. Kinetic data evaluation was performed by global fitting with BIAevaluation software V 3.0 (Karlsson et al. (1991) J. Immunol. Methods 145, 229-240). Alternatively, the plateau values at the end of the association phase (after 200 s) were plotted against the applied protein concentration and fitted as in the ELISA (see above) to determine the equilibrium dissociation constants (KO.
# (§2) Finally, the hNGAL variants were analyzed by SPR using a Biacore CM-5 chip with the covalently attached Y-DTPA-RNaseA conjugate and applying the purified recombinant proteins (Table 3). […] The improved KD values result primarily from slower ligand dissociation.
# [6] = target: T5, hNGAL mutein Tb7, SEQ ID NO: 2 (Gln28His, Val33Gln, Leu36Arg, Ile41Ala, Tyr52Thr, Thr54Gln, Ser68Ala, Leu70Arg, Trp79Ala, Arg81Met, Cys87Ser, Lys134Ser, Tyr138L (Homo sapiens, UniProt P80188, C107S/I61A/K154S/L56R/L90R/Q48H/R101M/S88A/T165A/T74Q/V53Q/W99A/Y158L/Y72T)); test: SPR (Biacore), immobilized Me•DTPA-RNase; format: binding
# T5 construct: the mature hNGAL protein and the C-terminal Strep-tag II; OmpA signal peptide (N, cleaved yes); made in house; host or cells: E. coli BL21 or TG1-F- (periplasm), plasmid pNGAL15
# T5 sequence (P80188 21-198 Q48H/V53Q/L56R/I61A/Y72T/T74Q/S88A/L90R/W99A/R101M/C107S/K154S/Y158L/T165A): as the sequence (P80188 21-198 Q48H/V53Q/L56R/I61A/Y72T/T74Q/S88A/L90R/W99A/R101M/C107S/K154S/Y158L/T165A) above
# Description: as §1, §2
# [7] = target: T6, hNGAL mutein Yd5, SEQ ID NO: 9 (Tb7.N9.N34 + D77E/T136S) (Homo sapiens, UniProt P80188, C107S/D97E/I100T/I61A/K154S/L56R/L90R/Q48H/R101M/S147Q/S88A/T156S/T165A/T74Q/V53Q/W99L/Y158L/Y72T); test: SPR (Biacore), immobilized Me•DTPA-RNase; format: binding
# T6 construct: the mature hNGAL protein and the C-terminal Strep-tag II; OmpA signal peptide (N, cleaved yes); made in house; host or cells: E. coli BL21 or TG1-F- (periplasm), plasmid pNGAL15
# T6 sequence (P80188 21-198 with the stated changes): as the sequence (P80188 21-198 Q48H/V53Q/L56R/I61A/Y72T/T74Q/S88A/L90R/W99A/R101M/C107S/K154S/Y158L/T165A) above, with D77E, A79L, I80T, S127Q, T136S counted along it
# Description: as §1, §2
# [8] = target: T7, hNGAL mutein Ya6, SEQ ID NO: 8 (Tb7.N9.N34 with Thr136Ser) (Homo sapiens, UniProt P80188, C107S/I100T/I61A/K154S/L56R/L90R/Q48H/R101M/S147Q/S88A/T156S/T165A/T74Q/V53Q/W99L/Y158L/Y72T); test: SPR (Biacore), immobilized Me•DTPA-RNase; format: binding
# T7 construct: the mature hNGAL protein and the C-terminal Strep-tag II; Strep-tag II (C); OmpA signal peptide (N, cleaved yes); made in house; host or cells: E. coli BL21 or TG1-F- (periplasm), plasmid pNGAL15
# T7 sequence (P80188 21-198 with the stated changes): as the sequence (P80188 21-198 Q48H/V53Q/L56R/I61A/Y72T/T74Q/S88A/L90R/W99A/R101M/C107S/K154S/Y158L/T165A) above, with A79L, I80T, S127Q, T136S counted along it
# Description: as §1, §2
# [9] = target: T8, hNGAL mutein Tb7.N9, SEQ ID NO: 6 (Tb7 + A79L/I80T) (Homo sapiens, UniProt P80188, C107S/I100T/I61A/K154S/L56R/L90R/Q48H/R101M/S88A/T165A/T74Q/V53Q/W99L/Y158L/Y72T); test: SPR (Biacore), immobilized Me•DTPA-RNase; format: binding
# T8 construct: the mature hNGAL protein and the C-terminal Strep-tag II; OmpA signal peptide (N, cleaved yes); made in house; host or cells: E. coli BL21 or TG1-F- (periplasm), plasmid pNGAL15
# T8 sequence (P80188 21-198 Q48H/V53Q/L56R/I61A/Y72T/T74Q/S88A/L90R/W99L/I100T/R101M/C107S/K154S/Y158L/T165A): as the sequence (P80188 21-198 Q48H/V53Q/L56R/I61A/Y72T/T74Q/S88A/L90R/W99A/R101M/C107S/K154S/Y158L/T165A) above, with A79L, I80T counted along it
# Description: as §1, §2
# [10] = 5 μl/min, from the kinetic analysis, read-out: KD
# [11] = equilibrium analysis, read-out: Kd/eq
molecule,measurement,setting,value
"O=C(N[C@H]1COC(=O)[C@@H](NC(=O)c2cccc(O)c2O)COC(=O)[C@@H](NC(=O)c2cccc(O)c2O)COC1=O)c1cccc(O)c1O.[Fe+3] [Fe^3+-enterobactin, enterobactin]",Kd,[1]; read-out: dissociation constant (KD),0.4 nM
"Nc1ccc(C[C@H](CN(CC(=O)O)[C@H]2CCCC[C@@H]2N(CC(=O)O)CC(=O)O)N(CC(=O)O)CC(=O)O)cc1.[Gd+3] [Me•p-NH2-Bn-CHX-A″-DTPA (Gd^3+), [(R)-2-amino-3-(4-aminophenyl)propyl]-trans-(S,S)-cyclohexane-1,2-diamine-pentaacetic acid]",Kd,[2],3.6 ± 0.24 nM
"Nc1ccc(C[C@H](CN(CC(=O)O)[C@H]2CCCC[C@@H]2N(CC(=O)O)CC(=O)O)N(CC(=O)O)CC(=O)O)cc1.[In+3] [Me•p-NH2-Bn-CHX-A″-DTPA (In^3+), [(R)-2-amino-3-(4-aminophenyl)propyl]-trans-(S,S)-cyclohexane-1,2-diamine-pentaacetic acid]",Kd,[2],44.7 ± 2.5 nM
"Nc1ccc(C[C@H](CN(CC(=O)O)[C@H]2CCCC[C@@H]2N(CC(=O)O)CC(=O)O)N(CC(=O)O)CC(=O)O)cc1.[Tb+3] [Me•p-NH2-Bn-CHX-A″-DTPA (Tb^3+), [(R)-2-amino-3-(4-aminophenyl)propyl]-trans-(S,S)-cyclohexane-1,2-diamine-pentaacetic acid]",Kd,[2],2.9 ± 0.17 nM
C[C@H]1OC(=O)[C@@H](NC(=O)CNC(=O)c2cccc(O)c2O)[C@@H](C)OC(=O)[C@@H](NC(=O)CNC(=O)c2cccc(O)c2O)[C@@H](C)OC(=O)[C@H]1NC(=O)CNC(=O)c1cccc(O)c1O [bacillibactin],binding,[1],forms stable complexes
O=C(CC(O)(CC(=O)NCCCCNCCCNC(=O)c1ccc(O)c(O)c1)C(=O)O)NCCCCNCCCNC(=O)c1ccc(O)c(O)c1 [petrobactin],binding,[1],does not bind
B1,binding activity,[3],no measurable binding activity
same,Kd,[4],74.5 ± 7.8 nM
same,koff,[5]; 5 μl/min,0.0114 s⁻¹
same,kon,[5]; 5 μl/min,746000 M⁻¹ s⁻¹
same,Kd,[5]; [10],15.3 nM
same,Kd,[5]; [11],21 ± 2.3 nM
same,koff,[6]; 5 μl/min,0.0401 s⁻¹
same,kon,[6]; 5 μl/min,535000 M⁻¹ s⁻¹
same,Kd,[6]; [10],74.9 nM
same,Kd,"[6]; from concentration-dependent saturation values in an equilibrium analysis, read-out: Kd/eq",50 ± 6.5 nM
same,koff,[7]; 5 μl/min,0.00246 s⁻¹
same,kon,[7]; 5 μl/min,1e+06 M⁻¹ s⁻¹
same,Kd,[7]; [10],2.34 nM
same,Kd,[7]; [11],3.8 ± 0.15 nM
same,koff,[8]; 5 μl/min,0.00296 s⁻¹
same,Kd,[8]; [10],2.39 nM
same,Kd,[8]; [11],5 ± 0.22 nM
same,koff,[9]; 5 μl/min,0.0105 s⁻¹
same,kon,[9]; 5 μl/min,689000 M⁻¹ s⁻¹
same,Kd,[9]; [10],15.2 nM
same,Kd,[9]; [11],25 ± 2.7 nM
